Assay results reported in paper PMC4579057 (Journal of molecular biology, 2015).

Target: the molecule itself
Experiment: SEC

B1: APOBEC3B carboxy-terminal domain 193-CTD (Met-193 to the carboxy-terminal end) (domain or fragment)
chain: not shown
In the case of B1, the “stoichiometry N” value is reported as 2.
